Laboratory results from patent US20140087995A1 (published 2014).
Blank lines part the entries; values can stand above or below the binder they belong to. Numbered stars: 1 amine (or outer) side, 2 acyl side, 3 side chain; on linkers, the order of the positions; unused ones are H or OH. Bridge positions count the residues as written; N and C are the ends. Side chains are listed from the residue outwards. Ends that are not written are not given here. * marks the point of attachment. C20 diacid = O=C(O)CCCCCCCCCCCCCCCCCCC(=O)*; γGlu = O=C(O)[C@H](CCC(=O)[*:2])N[*:1]

Experiments:
[1] = molecular target: T1, human amylin 3(a) receptor (human calcitonin receptor plus RAMP-3) (human, UniProt P30988 25-474; O60896 24-148, limits assumed); assay: SPA competition binding, displacement of 125I-rat amylin from membranes of Amylin 3(a)/CRE-luc BHK cells (Assay V)
T1 construct: whole, on cells; Whole cells in the luciferase assay (Assay II a); also called hAmylin-R; human amylin receptor
T1 sequence (looked up) 1: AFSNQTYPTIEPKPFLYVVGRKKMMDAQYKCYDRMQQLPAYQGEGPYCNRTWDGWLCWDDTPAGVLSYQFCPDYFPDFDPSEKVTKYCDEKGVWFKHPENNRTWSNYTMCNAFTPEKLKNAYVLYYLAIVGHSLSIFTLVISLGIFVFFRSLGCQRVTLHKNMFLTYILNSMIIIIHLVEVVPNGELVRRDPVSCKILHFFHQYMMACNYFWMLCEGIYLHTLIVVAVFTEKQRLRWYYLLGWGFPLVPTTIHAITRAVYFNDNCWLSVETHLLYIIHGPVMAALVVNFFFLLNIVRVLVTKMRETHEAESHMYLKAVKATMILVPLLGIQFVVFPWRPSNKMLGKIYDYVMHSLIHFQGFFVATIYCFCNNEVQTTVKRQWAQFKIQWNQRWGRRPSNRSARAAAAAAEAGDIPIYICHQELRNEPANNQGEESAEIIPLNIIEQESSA
T1 sequence (looked up) 2: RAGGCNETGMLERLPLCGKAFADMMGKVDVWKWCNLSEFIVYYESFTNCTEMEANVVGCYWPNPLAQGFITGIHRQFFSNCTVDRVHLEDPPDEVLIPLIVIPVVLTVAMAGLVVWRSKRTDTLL
Procedure, shortened: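 One-site competition analysis of SPA counts yielded IC₅₀ as a measure of affinity. Membranes were at 35 ng/μL final; incubation was 120 min at 25° C, pH 7.4.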

[2] = molecular target: T1, human amylin 3(a) receptor (human …); assay: cell-based or functional assay
[3] = molecular target: T2, human calcitonin receptor (human, UniProt P30988 25-474); assay: cell-based or functional assay
T2 sequence (looked up): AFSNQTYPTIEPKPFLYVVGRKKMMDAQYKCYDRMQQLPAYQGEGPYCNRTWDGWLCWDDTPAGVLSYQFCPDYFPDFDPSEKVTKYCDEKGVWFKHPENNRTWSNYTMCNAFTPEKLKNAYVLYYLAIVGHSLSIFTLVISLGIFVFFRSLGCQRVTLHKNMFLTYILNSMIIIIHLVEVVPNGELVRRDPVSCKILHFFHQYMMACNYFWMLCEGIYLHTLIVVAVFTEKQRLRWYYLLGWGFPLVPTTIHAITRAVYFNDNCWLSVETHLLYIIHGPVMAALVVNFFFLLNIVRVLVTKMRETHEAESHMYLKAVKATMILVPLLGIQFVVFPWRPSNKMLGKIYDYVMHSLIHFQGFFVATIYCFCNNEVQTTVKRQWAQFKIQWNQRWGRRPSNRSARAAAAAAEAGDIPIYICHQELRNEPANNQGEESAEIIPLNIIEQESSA

B2: N^ε1-[(4S)-4-carboxy-4-(19-carboxynonadecanoylamino)butanoyl]-[Glu14,Arg17,Pro21,Pro27,Pro34,Arg35]-h-amylin (peptide)
peptide: K([γGlu-C20 diacid])CNTATCATQRLAEFLRHSSPNFGAIPSSTNVGPRTY-NH2
modifications: disulfide 2-7; N-terminus assumed
SMILES: CC[C@H](C)[C@H](NC(=O)[C@H](C)NC(=O)CNC(=O)[C@H](Cc1ccccc1)NC(=O)[C@H](CC(N)=O)NC(=O)[C@@H]1CCCN1C(=O)[C@H](CO)NC(=O)[C@H](CO)NC(=O)[C@H](Cc1c[nH]cn1)NC(=O)[C@H](CCCNC(=N)N)NC(=O)[C@H](CC(C)C)NC(=O)[C@H](Cc1ccccc1)NC(=O)[C@H](CCC(=O)O)NC(=O)[C@H](C)NC(=O)[C@H](CC(C)C)NC(=O)[C@H](CCCNC(=N)N)NC(=O)[C@H](CCC(N)=O)NC(=O)[C@@H](NC(=O)[C@H](C)NC(=O)[C@@H]1CSSC[C@H](NC(=O)[C@@H](N)CCCCNC(=O)CC[C@H](NC(=O)CCCCCCCCCCCCCCCCCCC(=O)O)C(=O)O)C(=O)N[C@@H](CC(N)=O)C(=O)N[C@@H]([C@@H](C)O)C(=O)N[C@@H](C)C(=O)N[C@@H]([C@@H](C)O)C(=O)N1)[C@@H](C)O)C(=O)N1CCC[C@H]1C(=O)N[C@@H](CO)C(=O)N[C@@H](CO)C(=O)N[C@H](C(=O)N[C@@H](CC(N)=O)C(=O)N[C@H](C(=O)NCC(=O)N1CCC[C@H]1C(=O)N[C@@H](CCCNC(=N)N)C(=O)N[C@H](C(=O)N[C@@H](Cc1ccc(O)cc1)C(N)=O)[C@@H](C)O)C(C)C)[C@@H](C)O
- IC50 [1]: 0.163 nM
- hAmylin-R funct. EC50 [2]: 0.376 nM
- hCTR funct. EC50 [3]: 6.38 nM

B3: N^ε1-[(4S)-4-carboxy-4-(19-carboxynonadecanoylamino)butanoyl]-[Glu14,Arg17,Pro21,Pro27,Pro34,Glu35]-h-amylin (peptide)
peptide: K([γGlu-C20 diacid])CNTATCATQRLAEFLRHSSPNFGAIPSSTNVGPETY-NH2
modifications: disulfide 2-7; N-terminus assumed
SMILES: CC[C@H](C)[C@H](NC(=O)[C@H](C)NC(=O)CNC(=O)[C@H](Cc1ccccc1)NC(=O)[C@H](CC(N)=O)NC(=O)[C@@H]1CCCN1C(=O)[C@H](CO)NC(=O)[C@H](CO)NC(=O)[C@H](Cc1c[nH]cn1)NC(=O)[C@H](CCCNC(=N)N)NC(=O)[C@H](CC(C)C)NC(=O)[C@H](Cc1ccccc1)NC(=O)[C@H](CCC(=O)O)NC(=O)[C@H](C)NC(=O)[C@H](CC(C)C)NC(=O)[C@H](CCCNC(=N)N)NC(=O)[C@H](CCC(N)=O)NC(=O)[C@@H](NC(=O)[C@H](C)NC(=O)[C@@H]1CSSC[C@H](NC(=O)[C@@H](N)CCCCNC(=O)CC[C@H](NC(=O)CCCCCCCCCCCCCCCCCCC(=O)O)C(=O)O)C(=O)N[C@@H](CC(N)=O)C(=O)N[C@@H]([C@@H](C)O)C(=O)N[C@@H](C)C(=O)N[C@@H]([C@@H](C)O)C(=O)N1)[C@@H](C)O)C(=O)N1CCC[C@H]1C(=O)N[C@@H](CO)C(=O)N[C@@H](CO)C(=O)N[C@H](C(=O)N[C@@H](CC(N)=O)C(=O)N[C@H](C(=O)NCC(=O)N1CCC[C@H]1C(=O)N[C@@H](CCC(=O)O)C(=O)N[C@H](C(=O)N[C@@H](Cc1ccc(O)cc1)C(N)=O)[C@@H](C)O)C(C)C)[C@@H](C)O
- IC50 [1]: 0.14 nM
- Ratio hCT/hAmylin funct. [2]: 5.2
- hAmylin-R funct. EC50 [2]: 0.161 nM
- hCTR funct. EC50 [3]: 0.841 nM

B4: N^ε1-[(4S)-4-carboxy-4-(19-carboxynonadecanoylamino)butanoyl]-[Glu14,Arg17,Pro21,Pro27,Pro34,Pro37]-h-amylin (peptide)
peptide: K([γGlu-C20 diacid])CNTATCATQRLAEFLRHSSPNFGAIPSSTNVGPNTP-NH2
modifications: disulfide 2-7; N-terminus assumed
SMILES: CC[C@H](C)[C@H](NC(=O)[C@H](C)NC(=O)CNC(=O)[C@H](Cc1ccccc1)NC(=O)[C@H](CC(N)=O)NC(=O)[C@@H]1CCCN1C(=O)[C@H](CO)NC(=O)[C@H](CO)NC(=O)[C@H](Cc1c[nH]cn1)NC(=O)[C@H](CCCNC(=N)N)NC(=O)[C@H](CC(C)C)NC(=O)[C@H](Cc1ccccc1)NC(=O)[C@H](CCC(=O)O)NC(=O)[C@H](C)NC(=O)[C@H](CC(C)C)NC(=O)[C@H](CCCNC(=N)N)NC(=O)[C@H](CCC(N)=O)NC(=O)[C@@H](NC(=O)[C@H](C)NC(=O)[C@@H]1CSSC[C@H](NC(=O)[C@@H](N)CCCCNC(=O)CC[C@H](NC(=O)CCCCCCCCCCCCCCCCCCC(=O)O)C(=O)O)C(=O)N[C@@H](CC(N)=O)C(=O)N[C@@H]([C@@H](C)O)C(=O)N[C@@H](C)C(=O)N[C@@H]([C@@H](C)O)C(=O)N1)[C@@H](C)O)C(=O)N1CCC[C@H]1C(=O)N[C@@H](CO)C(=O)N[C@@H](CO)C(=O)N[C@H](C(=O)N[C@@H](CC(N)=O)C(=O)N[C@H](C(=O)NCC(=O)N1CCC[C@H]1C(=O)N[C@@H](CC(N)=O)C(=O)N[C@H](C(=O)N1CCC[C@H]1C(N)=O)[C@@H](C)O)C(C)C)[C@@H](C)O
- IC50 [1]: 0.214 nM
- Ratio hCT/hAmylin funct. [2]: 0.9
- hAmylin-R funct. EC50 [2]: 0.105 nM
- hCTR funct. EC50 [3]: 0.09 nM

B5: N^ε1-[(4S)-4-carboxy-4-[[(4S)-4-carboxy-4-(19-carboxynonadecanoylamino)butanoyl]amino]butanoyl]-[Glu14,Arg17,Pro21,Pro27,Arg34,Glu35]-h-amylin (peptide)
peptide: K([γGlu-γGlu-C20 diacid])CNTATCATQRLAEFLRHSSPNFGAIPSSTNVGRETY-NH2
modifications: disulfide 2-7; N-terminus assumed
SMILES: CC[C@H](C)[C@H](NC(=O)[C@H](C)NC(=O)CNC(=O)[C@H](Cc1ccccc1)NC(=O)[C@H](CC(N)=O)NC(=O)[C@@H]1CCCN1C(=O)[C@H](CO)NC(=O)[C@H](CO)NC(=O)[C@H](Cc1c[nH]cn1)NC(=O)[C@H](CCCNC(=N)N)NC(=O)[C@H](CC(C)C)NC(=O)[C@H](Cc1ccccc1)NC(=O)[C@H](CCC(=O)O)NC(=O)[C@H](C)NC(=O)[C@H](CC(C)C)NC(=O)[C@H](CCCNC(=N)N)NC(=O)[C@H](CCC(N)=O)NC(=O)[C@@H](NC(=O)[C@H](C)NC(=O)[C@@H]1CSSC[C@H](NC(=O)[C@@H](N)CCCCNC(=O)CC[C@H](NC(=O)CC[C@H](NC(=O)CCCCCCCCCCCCCCCCCCC(=O)O)C(=O)O)C(=O)O)C(=O)N[C@@H](CC(N)=O)C(=O)N[C@@H]([C@@H](C)O)C(=O)N[C@@H](C)C(=O)N[C@@H]([C@@H](C)O)C(=O)N1)[C@@H](C)O)C(=O)N1CCC[C@H]1C(=O)N[C@@H](CO)C(=O)N[C@@H](CO)C(=O)N[C@H](C(=O)N[C@@H](CC(N)=O)C(=O)N[C@H](C(=O)NCC(=O)N[C@@H](CCCNC(=N)N)C(=O)N[C@@H](CCC(=O)O)C(=O)N[C@H](C(=O)N[C@@H](Cc1ccc(O)cc1)C(N)=O)[C@@H](C)O)C(C)C)[C@@H](C)O
- IC50 [1]: 0.957 nM
- hAmylin-R funct. EC50 [2]: 0.703 nM
- hCTR funct. EC50 [3]: 7.43 nM

The remaining binders from weak to strong by IC50 [1], led by results:

- IC50 [1]: 0.387 nM
- Ratio hCT/hAmylin funct. [2]: 6.3
- hAmylin-R funct. EC50 [2]: 0.405 nM
- hCTR funct. EC50 [3]: 2.54 nM
B1: N^ε1-[(4S)-4-carboxy-4-(19-carboxynonadecanoylamino)butanoyl]-[Glu14,Arg17,Pro21,Pro27,His34,Glu35]-h-amylin (peptide)
peptide: K([γGlu-C20 diacid])CNTATCATQRLAEFLRHSSPNFGAIPSSTNVGHETY-NH2
modifications: disulfide 2-7; N-terminus assumed
SMILES: CC[C@H](C)[C@H](NC(=O)[C@H](C)NC(=O)CNC(=O)[C@H](Cc1ccccc1)NC(=O)[C@H](CC(N)=O)NC(=O)[C@@H]1CCCN1C(=O)[C@H](CO)NC(=O)[C@H](CO)NC(=O)[C@H](Cc1c[nH]cn1)NC(=O)[C@H](CCCNC(=N)N)NC(=O)[C@H](CC(C)C)NC(=O)[C@H](Cc1ccccc1)NC(=O)[C@H](CCC(=O)O)NC(=O)[C@H](C)NC(=O)[C@H](CC(C)C)NC(=O)[C@H](CCCNC(=N)N)NC(=O)[C@H](CCC(N)=O)NC(=O)[C@@H](NC(=O)[C@H](C)NC(=O)[C@@H]1CSSC[C@H](NC(=O)[C@@H](N)CCCCNC(=O)CC[C@H](NC(=O)CCCCCCCCCCCCCCCCCCC(=O)O)C(=O)O)C(=O)N[C@@H](CC(N)=O)C(=O)N[C@@H]([C@@H](C)O)C(=O)N[C@@H](C)C(=O)N[C@@H]([C@@H](C)O)C(=O)N1)[C@@H](C)O)C(=O)N1CCC[C@H]1C(=O)N[C@@H](CO)C(=O)N[C@@H](CO)C(=O)N[C@H](C(=O)N[C@@H](CC(N)=O)C(=O)N[C@H](C(=O)NCC(=O)N[C@@H](Cc1c[nH]cn1)C(=O)N[C@@H](CCC(=O)O)C(=O)N[C@H](C(=O)N[C@@H](Cc1ccc(O)cc1)C(N)=O)[C@@H](C)O)C(C)C)[C@@H](C)O
notes: also called compound 107

- IC50 [1]: 0.179 nM
- hAmylin-R funct. EC50 [2]: 0.101 nM
- hCTR funct. EC50 [3]: 1.45 nM
Binder: K([γGlu-C20 diacid])CNTATCATQRLAEFLRHSSPNFGAIPSSTNVGPHTY-NH2 (disulfide 2-7)
